Laboratory results taken from publication PMC4706430, “In Vitro Mode of Action and Anti-thrombotic Activity of Boophilin, a Multifunctional Kunitz Protease Inhibitor from the Midgut of a Tick Vector of Babesiosis, Rhipicephalus microplus” (PLoS Neglected Tropical Diseases, 2016).

Columns and labels:
[1] = target: T1, FXIa (human, UniProt P03951 19-387; P03951 388-625); assay: enzyme inhibition kinetics (chromogenic substrate hydrolysis); apparent Ki from Vs/Vo against Boophilin concentration (0-640 nM); FXIa (10 nM) pre-incubated 1 hour with Boophilin, then S2366 (250 μM); TBS-BSA pH 7.4; details: both partners purified
T1 construct: coagulation factor XIa heavy chain; coagulation factor XIa light (catalytic) chain; for the Enzyme Research Laboratories FXIa no species is printed; also called Factor XIa; source: bought: Enzyme Research Laboratories (reagents list); bought: Molecular Innovations (protease screen); copies: 2 + 2
T1 sequence (P03951 19-387, chain 1 of 2): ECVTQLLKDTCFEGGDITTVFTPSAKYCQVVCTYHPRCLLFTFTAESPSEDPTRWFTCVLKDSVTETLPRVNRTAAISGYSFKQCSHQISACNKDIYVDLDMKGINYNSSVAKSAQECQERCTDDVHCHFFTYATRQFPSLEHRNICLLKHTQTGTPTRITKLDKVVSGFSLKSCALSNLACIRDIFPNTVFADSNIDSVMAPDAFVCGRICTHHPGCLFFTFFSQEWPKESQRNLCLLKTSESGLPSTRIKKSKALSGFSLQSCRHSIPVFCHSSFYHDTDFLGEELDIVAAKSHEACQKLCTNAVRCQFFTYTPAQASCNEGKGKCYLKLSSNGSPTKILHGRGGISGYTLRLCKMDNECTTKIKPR
T1 sequence (P03951 388-625, chain 2 of 2): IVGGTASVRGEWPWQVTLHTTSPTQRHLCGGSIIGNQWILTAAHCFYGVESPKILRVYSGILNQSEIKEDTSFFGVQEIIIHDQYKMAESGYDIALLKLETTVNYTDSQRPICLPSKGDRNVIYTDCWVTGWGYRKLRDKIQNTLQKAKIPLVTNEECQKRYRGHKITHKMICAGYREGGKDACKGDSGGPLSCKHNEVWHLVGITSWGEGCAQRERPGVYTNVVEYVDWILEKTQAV

[2] = target: kallikrein (human, UniProt P03952 20-638); assay: cell-based or functional assay
kallikrein, sequence (P03952 20-638): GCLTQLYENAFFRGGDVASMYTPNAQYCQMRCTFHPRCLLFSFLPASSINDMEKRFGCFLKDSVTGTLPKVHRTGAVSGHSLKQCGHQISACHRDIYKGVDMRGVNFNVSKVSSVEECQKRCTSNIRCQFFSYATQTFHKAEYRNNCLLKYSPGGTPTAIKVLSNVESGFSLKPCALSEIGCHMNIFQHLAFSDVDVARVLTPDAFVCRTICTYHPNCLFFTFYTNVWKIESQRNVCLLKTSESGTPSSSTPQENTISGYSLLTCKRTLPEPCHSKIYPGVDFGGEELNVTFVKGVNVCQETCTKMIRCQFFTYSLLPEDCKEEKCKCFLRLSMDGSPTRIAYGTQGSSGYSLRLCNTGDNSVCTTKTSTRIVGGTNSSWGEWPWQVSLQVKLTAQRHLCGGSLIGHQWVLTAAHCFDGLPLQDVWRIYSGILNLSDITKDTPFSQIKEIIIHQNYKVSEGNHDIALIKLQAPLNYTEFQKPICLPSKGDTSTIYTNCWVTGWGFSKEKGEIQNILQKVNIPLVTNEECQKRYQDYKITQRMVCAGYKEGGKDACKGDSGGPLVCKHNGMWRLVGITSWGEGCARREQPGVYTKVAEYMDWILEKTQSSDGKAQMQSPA

[3] = target: T2, α-thrombin (human, UniProt P00734 364-622); assay: cell-based or functional assay
[4] = target: T1, FXIa; assay: enzyme inhibition kinetics (chromogenic substrate hydrolysis); Lineweaver-Burk plots and re-plot of the slope against Boophilin concentration; Boophilin (0-1280 nM) with S2238 or S2366 (125-750 μM), then thrombin (0.2 nM) or FXIa (0.5 nM); TBS-BSA pH 7.4; details: both partners purified
[5] = target: T2, α-thrombin; assay: as above; details: both partners purified
[6] = target: T2, α-thrombin; assay: SPR; Biacore T100; Boophilin immobilised on CM5 by amine coupling (301.4 RU); thrombin (15.625-500 nM) injected 90 s, dissociation 180 s, 30 μL/minute, 25°C, HBS-P pH 7.4; global 1:1 Langmuir fit; α-thrombin, γ-thrombin and PPACK-thrombin also tested at 1 μM as analytes; details: both partners purified
[7] = target: T1, FXIa; assay: SPR; Biacore T100; FXIa immobilised on CM5 by amine coupling (1280.4 RU); Boophilin (31.25-500 nM) injected 120 s, dissociation 600 s, 30 μL/minute, 25°C, HBS-P pH 7.4; global 1:1 Langmuir fit; details: both partners purified

B1: Boophilin (natural protein)
chain: QRNGFCRLPADEGICKALIPRFYFNTETGKCTMFSYGGCGGNENNFETIEDCQKACGAPERVSDFEGADFKTGCEPAADSGSCAGQLERWFYNVRSGECETFVYGGCGGNDNNYESEEECELVCKNM
modifications: N-terminus blocked (Edman degradation)
Ki [1]: ~82 nM | IC50 of the amidolytic activity of kallikrein (2 nM) on S2302, Boophilin 0-3200 nM, Vs/Vo (Fig 3G) [2]: 919000 nM | IC50 of residual amidolytic activity (S-2238) of clot-bound thrombin (Fig 2H) [3]: ~1000 nM | IC50 of thrombin-mediated fibrin formation (thrombin 200 nM, fibrinogen 2 mg/mL; absorbance at 600 nm) (Fig 2G) [3]: ~1000 nM | Ki [4]: 115 nM | Ki [5]: 101 nM | Kd [6]: 116 nM | koff [6]: 0.36 s⁻¹ | kon [6]: 3e+06 M⁻¹ s⁻¹ | Kd [7]: ~125 nM
